Results published in PMC10746174.

Target: heme
Test: UV-vis spectroscopy, as-purified Soret peak (412 nm)
Details: 50 µg of purified protein, as-purified (black trace); parent: est. 0.32; read off a plot

response [Abs.] | Substance
0.18 | CcmF:6×His wild type (from UniProt P33927) Y231A
0.2 | CcmF:6×His wild type (from UniProt P33927) W229A
